Entries after “also recorded” stand apart in the source; their conditions may differ. Ends that are not written are not given here. * marks the point of attachment. FITC = O=C1OC2(c3ccc(O)cc3Oc3cc(O)ccc32)c2ccc(NC(=S)*)cc21; Ahx = NCCCCCC(=O)O
Key:
αVβ6-WT = assay: Fluorescence polarization saturation binding, αVβ6-WT; conditions: 2, 5 and 10 nM probe, repeat1 and repeat2, 2 replicates each
Source text: As in statistical models for determining p values, the fit assumes that errors are independent and normally distributed. The reported fit minimizes the sum of the squared errors. […] Source data for a, b are provided as a Source Data file. c Representative negative stain class averages of mutant or WT integrin headpieces alone (upper panels) or complexed with pro-TGF-β1. Representative 2:1 pro-TGF-β1:integrin class averages are shown.

αVβ8-mut6 headpiece = target: T1, αVβ8-mut6 headpiece (Homo sapiens, UniProt P06756+P26012, K165T/M430C/N161D/N162D/V301C); assay: Negative stain EM headpiece opening, αVβ8-mut6; conditions: 1 mM Mn2+/0.2 mM Ca2+
T1 construct: residues 1–594 of the αV-subunit and 1–456 of the β8-subunit; made in house; host or cells: Expi293 cells (transient)
Source text: Fig. 7 Regulation of ligand-binding affinity by atypical and typical residues in αVβ8 and αVβ6. a Mutations corresponding to sequence exchanges between αVβ8 (black) and αVβ6 (red) and effect on affinity for FITC-labeled TGF-β3 ligand peptide (GRGDLGRLKK) in presence of Mg^2+ and Mn^2+. […] As in statistical models for determining p values, the fit assumes that errors are independent and normally distributed. The reported fit minimizes the sum of the squared errors. […] Source data for a, b are provided as a Source Data file. c Representative negative stain class averages of mutant or WT integrin headpieces alone (upper panels) or complexed with pro-TGF-β1. Representative 2:1 pro-TGF-β1:integrin class averages are shown. The WT integrin class averages shown for comparison are previously published. d, e Residues in regions of βI domain allostery with unusual properties in αVβ8 (d) are compared to counterparts in αVβ6 (e). […] Mn^2+: 0.37 [0.18, 0.55] […]
αVβ8-mut3 or αVβ8-mut6 (15 μg) were mixed with pro-TGF-β1 at molar ratio 1.5:1 in 50 μl of HBS buffer containing 1 mM Mn^2+/0.2 mM Ca^2+ for 30 min and injected in a 24 ml Superdex 75 gel filtration column pre-equilibrated with HBS buffer (20 mM HEPEs, pH 7.5, 150 mM NaCl, 1 mM Mn^2+/0.2 mM Ca^2+). The 2:2, 2:1 complexes and unbound αVβ8 and pro-TGF-β1 were well separated. […]

αVβ8-WT headpiece = target: T2, αVβ8-WT headpiece (Homo sapiens, UniProt P06756+P26012, M430C/V301C); conditions: Mn2+; negative stain EM; cited from earlier work
T2 construct: residues 1–594 of the αV-subunit and 1–456 of the β8-subunit; made in house; host or cells: HEK293S GntI−/− cells

D8/D9 αVβ8 = D8/D9 αVβ8 compared to WT; cited from earlier work
Source text: Mn^2+ increases affinity of αVβ6 in part by stabilizing headpiece opening. […] Results with αVβ8 were more complex. Substitution of one or both A ...

pro-TGF-β3 peptide [1] = target: T3, pro-TGF-β3 peptide (Homo sapiens); assay: fluorescence polarization
T3 chain: {FITC-Ahx}-GRGDLGRLKK

pro-TGF-β3 peptide [2] = target: T4, pro-TGF-β3 peptide (Homo sapiens); assay: fluorescence polarization
T4 chain: {FITC-Ahx}-GRGDLGRLKK

T1 sequence (P06756 31-624 M430C): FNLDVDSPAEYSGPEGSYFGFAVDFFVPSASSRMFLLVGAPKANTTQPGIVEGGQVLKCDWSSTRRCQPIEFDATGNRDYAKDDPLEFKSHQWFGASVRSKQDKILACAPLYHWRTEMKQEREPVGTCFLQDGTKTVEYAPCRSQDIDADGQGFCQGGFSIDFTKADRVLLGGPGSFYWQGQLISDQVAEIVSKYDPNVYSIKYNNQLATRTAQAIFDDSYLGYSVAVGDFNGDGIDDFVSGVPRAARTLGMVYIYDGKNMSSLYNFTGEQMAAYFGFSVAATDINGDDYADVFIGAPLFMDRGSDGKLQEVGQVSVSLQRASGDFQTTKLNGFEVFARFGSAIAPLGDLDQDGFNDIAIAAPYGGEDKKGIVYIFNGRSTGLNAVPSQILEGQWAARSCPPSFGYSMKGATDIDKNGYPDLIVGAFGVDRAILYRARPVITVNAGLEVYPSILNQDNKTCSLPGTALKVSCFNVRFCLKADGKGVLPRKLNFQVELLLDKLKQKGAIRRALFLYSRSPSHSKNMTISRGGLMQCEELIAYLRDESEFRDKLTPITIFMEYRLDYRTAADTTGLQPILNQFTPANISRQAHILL
T1 sequence (P26012 43-498 N161D/N162D/K165T/V301C): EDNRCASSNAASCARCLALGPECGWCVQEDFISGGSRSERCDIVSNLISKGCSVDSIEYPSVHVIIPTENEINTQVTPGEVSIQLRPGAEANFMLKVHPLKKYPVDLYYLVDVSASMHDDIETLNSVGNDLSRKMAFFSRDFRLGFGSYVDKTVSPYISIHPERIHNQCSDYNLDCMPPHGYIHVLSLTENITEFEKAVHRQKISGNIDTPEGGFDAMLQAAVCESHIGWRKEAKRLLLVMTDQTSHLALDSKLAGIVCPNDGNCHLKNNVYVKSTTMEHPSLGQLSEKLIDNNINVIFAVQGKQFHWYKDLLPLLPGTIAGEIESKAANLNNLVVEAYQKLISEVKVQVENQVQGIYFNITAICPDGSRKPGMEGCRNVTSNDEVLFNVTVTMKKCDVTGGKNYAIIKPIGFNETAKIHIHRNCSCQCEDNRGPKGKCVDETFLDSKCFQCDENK
T2 sequence (P06756 31-624 M430C): as the sequence (P06756 31-624 M430C) above
T2 sequence (P26012 43-498 V301C): as the sequence (P26012 43-498 N161D/N162D/K165T/V301C) above, with D119N, D120N, T123K counted along it

Molecule: avb6-WT
- Kd (αVβ6-WT; Mg fitting results, Std.Error 1.672e-10, 99% confidence interval 2.49E-09 (lower), 3.37E-09 (upper)): 2.93 nM
- Kd (αVβ6-WT; Mn fitting results, Std.Error 5.139e-11, 99% confidence interval 1.21E-10 (lower), 3.88E-10 (upper)): 0.254 nM

Molecule: pro-TGF-β1: Human pro-TGFβ-1 with a R249A cleavage site mutation
- headpiece conformation when bound to pro-TGF-β1 (αVβ8-mut6 headpiece): remained closed; also recorded: neither mutant showed the open headpiece
- headpiece conformation when bound to pro-TGF-β1 (αVβ8-WT headpiece): remained closed

Molecule: vitronectin: vitronectin, integrin ligand measured in cell binding in a cited study
- amount of vitronectin binding to cells (D8/D9 αVβ8): decreased binding of D8/D9 αVβ8 compared to WT

B1: Integrin αVβ8 headpiece αV 1-594 + β8 1-456 (protein)
chain 1: FNLDVDSPAEYSGPEGSYFGFAVDFFVPSASSRMFLLVGAPKANTTQPGIVEGGQVLKCDWSSTRRCQPIEFDATGNRDYAKDDPLEFKSHQWFGASVRSKQDKILACAPLYHWRTEMKQEREPVGTCFLQDGTKTVEYAPCRSQDIDADGQGFCQGGFSIDFTKADRVLLGGPGSFYWQGQLISDQVAEIVSKYDPNVYSIKYNNQLATRTAQAIFDDSYLGYSVAVGDFNGDGIDDFVSGVPRAARTLGMVYIYDGKNMSSLYNFTGEQMAAYFGFSVAATDINGDDYADVFIGAPLFMDRGSDGKLQEVGQVSVSLQRASGDFQTTKLNGFEVFARFGSAIAPLGDLDQDGFNDIAIAAPYGGEDKKGIVYIFNGRSTGLNAVPSQILEGQWAARSMPPSFGYSMKGATDIDKNGYPDLIVGAFGVDRAILYRARPVITVNAGLEVYPSILNQDNKTCSLPGTALKVSCFNVRFCLKADGKGVLPRKLNFQVELLLDKLKQKGAIRRALFLYSRSPSHSKNMTISRGGLMQCEELIAYLRDESEFRDKLTPITIFMEYRLDYRTAADTTGLQPILNQFTPANISRQAHILLDCGEDNVCKPKLEVSVDSDQKKIYIGDDNPLTLIVKAQNQGEGAYEAELIVSIPLQADFIGVVRNNEALARLSCAFKTENQTRQVVCDLGNPMKAGTQLLAGLRFSVHQQSEMDTSVKFDLQIQSSNLFDKVSPVVSHKVDLAVLAAVEIRGVSSPDHVFLPIPNWEHKENPETEEDVGPVVQHIYELRNNGPSSFSKAMLHLQWPYKYNNNTLLYILHYDIDGPMNCTSDMEINPLRIKISSLQTTEKNDTVAGQGERDHLITKRDLALSEGDIHTLGCGVAQCLKIVCQVGRLDRGKSAILYVKSLLWTETFMNKENQNHSYSLKSSASFNVIEFPYKNLPIEDITNSTLVTTNVTWGIQPAPMPV
chain 2: EDNRCASSNAASCARCLALGPECGWCVQEDFISGGSRSERCDIVSNLISKGCSVDSIEYPSVHVIIPTENEINTQVTPGEVSIQLRPGAEANFMLKVHPLKKYPVDLYYLVDVSASMHNNIEKLNSVGNDLSRKMAFFSRDFRLGFGSYVDKTVSPYISIHPERIHNQCSDYNLDCMPPHGYIHVLSLTENITEFEKAVHRQKISGNIDTPEGGFDAMLQAAVCESHIGWRKEAKRLLLVMTDQTSHLALDSKLAGIVVPNDGNCHLKNNVYVKSTTMEHPSLGQLSEKLIDNNINVIFAVQGKQFHWYKDLLPLLPGTIAGEIESKAANLNNLVVEAYQKLISEVKVQVENQVQGIYFNITAICPDGSRKPGMEGCRNVTSNDEVLFNVTVTMKKCDVTGGKNYAIIKPIGFNETAKIHIHRNCSCQCEDNRGPKGKCVDETFLDSKCFQCDENKCHFDEDQFSSESCKSHKDQPVCSGRGVCVCGKCSCHKIKLGKVYGKYCEKDDFSCPYHHGNLCAGHGECEAGRCQCFSGWEGDRCQCPSAAAQHCVNSKGQVCSGRGTCVCGRCECTDPRSIGRFCEHCPTCYTACKENWNCMQCLHPHNLSQAILDQCKTSCALMEQQHYVDQTSECFSSPSYLR
- Kd (pro-TGF-β3 peptide [1]): 30 nM

B2: Integrin αVβ6 headpiece headpiece (protein)
chain 1: B1 chain 1
chain 2: GCALGGAETCEDCLLIGPQCAWCAQENFTHPSGVGERCDTPANLLAKGCQLNFIENPVSQVEILKNKPLSVGRQKNSSDIVQIAPQSLILKLRPGGAQTLQVHVRQTEDYPVDLYYLMDLSASMDDDLNTIKELGSRLSKEMSKLTSNFRLGFGSFVEKPVSPFVKTTPEEIANPCSSIPYFCLPTFGFKHILPLTNDAERFNEIVKNQKISANIDTPEGGFDAIMQAAVCKEKIGWRNDSLHLLVFVSDADSHFGMDSKLAGIVIPNDGLCHLDSKNEYSMSTVLEYPTIGQLIDKLVQNNVLLIFAVTQEQVHLYENYAKLIPGATVGLLQKDSGNILQLIISAYEELRSEVELEVLGDTEGLNLSFTAICNNGTLFQHQKKCSHMKVGDTASFSVTVNIPHCERRSRHIIIKPVGLGDALELLVSPECNCDCQKEVEVNSSKCHHGNGSFQCGVCACHPGHMGPRCECGEDMLSTDSCKEAPDHPSCSGRGDCYCGQCICHLSPYGNIYGPYCQCDNFSCVRHKGLLCGGNGDCDCGECVCRSGWTGEYCNCTTSTDSCVSEDGVLCSGRGDCVCGKCVCTNPGASGPTCERCPTCGDPCNSKRSCIECHLSAAGQAREECVDKCKLAGATISEEEDFSKDGSVSCSLQGENECLITFLITTDNEGKTIIHSINEKDCPKPPNIP
- Kd (pro-TGF-β3 peptide [2]): 12 nM

From article PMC6889490, “General structural features that regulate integrin affinity revealed by atypical αVβ8” (Nature Communications, 2019)
